Reference: patent US20190048074A1 (Regeneron, published 2019)
Residue numbers refer to the chain shown, from its start. Names may count otherwise. Read-outs that look alike come from different tables or passages of the source. One block for each binder: values may come before it.

Tests used:
full-length human APLNR [1] = target: T1, full-length human APLNR (human, UniProt P35414 1-380); experiment: cell-based or functional assay
T1 sequence: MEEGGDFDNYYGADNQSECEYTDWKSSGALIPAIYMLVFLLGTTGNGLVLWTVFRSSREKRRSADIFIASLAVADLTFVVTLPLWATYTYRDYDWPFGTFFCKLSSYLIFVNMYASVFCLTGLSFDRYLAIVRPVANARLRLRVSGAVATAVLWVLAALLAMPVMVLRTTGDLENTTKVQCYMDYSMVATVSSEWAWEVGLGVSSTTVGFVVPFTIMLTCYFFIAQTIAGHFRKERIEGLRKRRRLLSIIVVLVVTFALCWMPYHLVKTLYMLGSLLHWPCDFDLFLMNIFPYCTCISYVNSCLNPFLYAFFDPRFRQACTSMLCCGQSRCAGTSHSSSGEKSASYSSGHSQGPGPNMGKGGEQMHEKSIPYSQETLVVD

full-length human APLNR [2] = target: T1, full-length human APLNR; experiment: cell-based or functional assay; remark: listed apart in the source
full-length human APLNR [3] = target: T1, full-length human APLNR; experiment: FACS, 10 µg/mL antibody, HEK293/CRE-luc/hAPLNR cells
[4] = target: T2, full length cynomolgus APLNR (cynomolgus monkey (Macaca fascicularis), UniProt O97666 1-380 (rhesus entry)); experiment: FACS, 10 µg/mL antibody, HEK293/CRE-luc/MfAPLNR cells
T2 construct: Stably expressed on HEK293/CRE-luc/MfAPLNR cells; also called MfAPLNR; mfAPLNR
T2 sequence: T1 sequence with F101S, L167F, E194D, I290V

full-length human APLNR [5] = target: T1, full-length human APLNR; experiment: FACS, 10 µg/mL antibody, HEK293/CRE-luc/hAPLNR cells; remark: listed apart in the source
[6] = target: T2, full length cynomolgus APLNR; experiment: FACS, 10 µg/mL antibody, HEK293/CRE-luc/MfAPLNR cells; remark: listed apart in the source
full-length human APLNR [7] = target: T1, full-length human APLNR; experiment: cell-based or functional assay; remark: listed apart in the source
full-length human APLNR [8] = target: T1, full-length human APLNR; experiment: cell-based or functional assay; remark: listed apart in the source
[9] = target: T3, human Apelin receptor (hAPLNR) in PathHunter eXpress AGTRL1 CHO-K1 β-Arrestin cells (human, UniProt P35414 1-380); experiment: cell-based or functional assay
T3 sequence: T1 sequence

full-length human APLNR [10] = target: T1, full-length human APLNR; experiment: cell-based or functional assay; remark: listed apart in the source

Binding Ratio of Geom. Mean to Unstained Cells (full-length human APLNR [5]): 2 fold | Binding Ratio of Geom. Mean to Unstained Cells [6]: 1 fold
B2: H4H9104P (antibody, V domains shown)
VH: QVQLVESGGDLVKPGGSLRLSCAASGFTFSDYYMNWIRQAPGKGLEWVSYISSSGSTIHYADSVKGRFTISRDNAKNLVYLRMNSLRAEDTAVYFCAREREVHDYSDPYFFFYGMDVWGQGTTVTVSS
VL: DIQMTQSPSSVSASVGDRVTITCRASQDVSSWLAWYQHKPGKAPKLLIFAASSLQSGVPSRFSGSGSGTDFTLTISSLQSEDFATYYCQQANSFPLTFGGGTKVEIK
notes: Fully human, human IgG4 Fc

Binding Ratio of Geom. Mean to Unstained Cells (full-length human APLNR [5]): 2 fold | Binding Ratio of Geom. Mean to Unstained Cells [6]: 1 fold
B5: H4H9113P (antibody, V domains shown)
VH: QVQLVQSGAEVKKPGASVEVSCKASGYTFTDYYIHWIRQAPGQGLEWMGWINPDSGRTNYAQKFQVRVTMTRDTSITTAYMELNRLKSDDTAVYYCARGPLRGYSGYDFFDYWGQGTLVTVSS
VL: DIQMTQSPSSLSASVGDRVTITCRASQGIRNDLGWYQQKPGKAPNRLIYAASSLQSGVPSRFSGSGSGTEFTLTISSLHPEDFATYSCLQHNSFPLTFGGGTKVEIK
notes: Fully human, human IgG4 Fc

% Activation at 500 nM mAb (at 7.5 uM Forskolin) (full-length human APLNR [7]): 45% | % Inhibition at 100 nM antibody, in the presence of 100 ρM Apelin (at 5 µM Forskolin) (full-length human APLNR [1]): 33% | IC50 [M], in the presence of 100 ρM Apelin (at 5 µM Forskolin) (full-length human APLNR [1]): 4.3e-09 M | Binding Ratio of Geom. Mean to Unstained Cells (full-length human APLNR [3]): 4100 fold | Binding Ratio of Geom. Mean to Unstained Cells [4]: 1440 fold
B6: H2aM9227N (antibody, V domains shown)
VH: EVQLVESGGGLVQPGGSLRLSCAASGFTFSSFWMSWVRQVPGKGLEWVANIKQDGSEKYYVDSVKGRFTISRDNAKNSLYLQMNSLRAEDTAVYYCARDRFGYSFYDKGVRYYYGMDVWGQGTTVTVSS
VL: B5 VL with A13V, N45K, A51T, S77G, H79Q, S87Y, F94Y, L96R, G100Q
notes: Human variable domains, mouse IgG2a Fc

Binding Ratio of Geom. Mean to Unstained Cells (full-length human APLNR [5]): 3 fold | Binding Ratio of Geom. Mean to Unstained Cells [6]: 2 fold
B8: H4H9103P (antibody, V domains shown)
VH: EVQLVESGGGLVQPGRSLRLSCAASGFTFDDYAMHWVRQVPGKGLEWVSGITWNSGDIGYADSVKGRFTISRDNAKNSLYLQMNSLRAEDTALYYCTKDKDSSGYYGIDVWGQGTTVTVSS
VL: DIQMTQSPSSVSASVGDRVTITCRASQGIRTWLAWYQQKPGKAPKLLIYAASSLQSGVPSRFSGSESGTDFTLTISSLQPEDFATYYCQQANSFPFTFGPGTKVDIK
notes: Fully human, human IgG4 Fc

% Inhibition at 100 nM mAb, in the presence of 100 ρM Apelin (at 10 µM Forskolin) (full-length human APLNR [10]): 16% | IC50 [M], in the presence of 100 ρM Apelin (at 10 µM Forskolin) (full-length human APLNR [10]): 5.9e-09 M
B10: H4H9209N (antibody, V domains shown)
VH: EVQLLESGGGLVQPGGSLRLSCAASGFTFSNYAMNWVRQAPGRGLEWVSAIHYDGSNSYYADSVKGRFTISRDNSKNTLYLQMNSLRAEDTAIYYCAILSRVYWGQGTLVTVSS
VL: DIQMTQSPSSLSASVGDRVTITCRASQGINNYLAWFQQKPGKAPKSLIYATSSLQSGVPSKFSGSGSGTDFTLTISSLQPEDFATYYCQQYNSYPLTFGGGTKVEIK

Binding Ratio of Geom. Mean to Unstained Cells (full-length human APLNR [5]): 3 fold | Binding Ratio of Geom. Mean to Unstained Cells [6]: 2 fold
B13: H4H9101P (antibody, V domains shown)
VH: B5 VH
VL: DIQLTQSPSFLSASVGDRVTITCWASQGISSYLAWYQQKPGKAPKLLIYAASTLQSGVPSRFSGSGSGTEFTLTISSLQPEDFASYFCQQLNSNPRTFGQGTKVEIK
notes: Fully human, human IgG4 Fc

The remaining lines, values behind:

B1: H2aM9232N (antibody, V domains shown)
VH: QVKLVESGGGVVQPGRSLRLSCAASGFTFSNYVIHWVRQAPGKGLEWVAVIWYDGSNKYYADSVKGRFTISRDNSKNTLYLQMNSLRAEDTAVYYCARDRVVRGVDYYYYYGLDVWGQGTSVTVSS
VL: EIVMTQSPATLSVSPGERATLSCRASQSVRSNLAWYQQKPGQAPRLLIYGASSRATGIPARFSGTGSGTEFTLTISSLQSDDFAVYYCQQYNKWPRTFGQGTKVEIK
notes: as for B6
% Inhibition at 100 nM antibody, in the presence of 100 ρM Apelin (at 5 µM Forskolin) (full-length human APLNR [1]): 98% | IC50 [M], in the presence of 100 ρM Apelin (at 5 µM Forskolin) (full-length human APLNR [1]): 4.2e-09 M | Inhibiting IC50 (M), pERK/total ERK assay, CHO/hAPLNR cells (full-length human APLNR [2]): 2.09e-07 M | Binding Ratio of Geom. Mean to Unstained Cells (full-length human APLNR [3]): 2860 fold | Binding Ratio of Geom. Mean to Unstained Cells [4]: 678 fold

B3: H2aM9222N (antibody, V domains shown)
VH: B6 VH with S31N, F32Y, V40A, K58R, D62G, D73G, N74D, K76E, F105A
VL: B5 VL with N45K, H79Q, S87Y, F94Y, L96R, G100Q
notes: as for B6
% Activation at 500 nM mAb (at 7.5 uM Forskolin) (full-length human APLNR [7]): 21% | % Inhibition at 100 nM antibody, in the presence of 100 ρM Apelin (at 5 µM Forskolin) (full-length human APLNR [1]): 11% | Activating EC50 (M), pERK/total ERK assay, CHO/hAPLNR cells (full-length human APLNR [2]): 4.79e-08 M

B4: H2aM9230N (antibody, V domains shown)
VH: B6 VH with E46Q, F105V
VL: B5 VL with A13V, N45K, S77G, H79Q, P80S, S87Y, N92K, F94Y, L96R, G100Q
notes: as for B6
% Activation at 500 nM mAb (at 7.5 uM Forskolin) (full-length human APLNR [7]): 52% | % Inhibition at 100 nM antibody, in the presence of 100 ρM Apelin (at 5 µM Forskolin) (full-length human APLNR [1]): 49% | IC50 [M], in the presence of 100 ρM Apelin (at 5 µM Forskolin) (full-length human APLNR [1]): 2.4e-09 M | Binding Ratio of Geom. Mean to Unstained Cells (full-length human APLNR [3]): 2940 fold | Binding Ratio of Geom. Mean to Unstained Cells [4]: 658 fold

B7: H2aM9228N (antibody, V domains shown)
VH: B6 VH with S31N, F32Y, Q39L, V40A, K58R, D62G, D73G, N74D, F105A, Y106F
VL: B5 VL with N45K, H79Q, S87Y, F94Y, L96R, G100Q
notes: as for B6
% Activation at 500 nM mAb (at 7.5 uM Forskolin) (full-length human APLNR [7]): 49% | % Inhibition at 100 nM antibody, in the presence of 100 ρM Apelin (at 5 µM Forskolin) (full-length human APLNR [1]): 26% | IC50 [M], in the presence of 100 ρM Apelin (at 5 µM Forskolin) (full-length human APLNR [1]): > 1e-07 M | Activating EC50 (M), pERK/total ERK assay, CHO/hAPLNR cells (full-length human APLNR [2]): 6.41e-08 M | Binding Ratio of Geom. Mean to Unstained Cells (full-length human APLNR [3]): 1490 fold | Binding Ratio of Geom. Mean to Unstained Cells [4]: 108 fold

B9: H4H9093P (antibody, V domains shown)
VH: EVQLVESGGGLVKPGGSLRLSCAASGITFSNAWMSWVRQAPGKGLEWVGRFKGKADGGTVDYAAPVKGRFTISRDDSKNTLYLQMNSLKNEDTAVYYCTTGRITMVRGVLGYWGQGTLVTVSS
VL: not shown
% Inhibition at 100 nM mAb, in the presence of 100 ρM Apelin (at 7.5 µM Forskolin) (full-length human APLNR [8]): 3% | % Activation at 500 nM antibody or Apelin-antibody fusion [9]: 2%

B11: H2aM9209N (antibody, V domains shown)
VH: B10 VH
VL: B10 VL
% Inhibition at 100 nM antibody, in the presence of 100 ρM Apelin (at 5 µM Forskolin) (full-length human APLNR [1]): 7%

B12: H1M9207N (antibody, V domains shown)
VH: EVQLVESGGGLAQPGGSLRLSCAASGFTFSNYWMSWVRQAPGKGLEWVANIKQDGSEKYYLESVKGRFTISRDNAKNLLYLQMNSLRAEDTAVFYCARPGLLRFLEPGRRYYSGMNVWGQGTTVTVSS
VL: B13 VL with S30R, S85T, F87Y, L91F, N94Y, R96W
notes: Human variable domains, mouse IgG1 Fc (H1M prefix)
% Inhibition at 100 nM antibody, in the presence of 100 ρM Apelin (at 5 µM Forskolin) (full-length human APLNR [1]): 83% | IC50 [M], in the presence of 100 ρM Apelin (at 5 µM Forskolin) (full-length human APLNR [1]): 3e-09 M | Binding Ratio of Geom. Mean to Unstained Cells (full-length human APLNR [3]): 2180 fold | Binding Ratio of Geom. Mean to Unstained Cells [4]: 1310 fold

B14: H4H9112P (antibody, V domains shown)
VH: B5 VH
VL: DIQMTQSPSSLSAFVGDRVTITCRASQSISSYLNWYQQKPGKAPKLLIYTASTLQRGVPSRFRGSGSGTDFTLTISSLQPEDFATYYCHQTYSIPITFGQGTRLEIK
notes: Fully human, human IgG4 Fc
Binding Ratio of Geom. Mean to Unstained Cells (full-length human APLNR [5]): 2 fold | Binding Ratio of Geom. Mean to Unstained Cells [6]: 2 fold
